Tested on: MS2 coat protein
Assay: apparent KD of MS2 coat protein; designed switch direction (-1 OFF switch, 1 ON switch): -1; higher = weaker reporter binding
Outline: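 Each step of the titration lasted 0.8–1.5 h at the lowest concentration and 10–20 min at the highest. The protein, SNAP-549-labelled MS2 coat protein, went from 0.7 or 1.5 nM doubling to 3 µM over RNA switches transcribed on Illumina chips by stalled E. coli RNA polymerase. Normalised cluster fluorescence was curve-fitted, and the per-design median over clusters is given as apparent KD.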

[1] = Eterna round: R95, input ligand: microRNA oligo, concentration not stated
[2] = Eterna round: R95, input ligand: FMN 200 uM
[3] = Eterna round: R95, input ligand: none
[4] = input ligand: microRNA oligo, concentration not stated

Sequence	apparent KD of MS2 coat protein [1]	apparent KD of MS2 coat protein (input ligand: FMN 200 uM)	apparent KD of MS2 coat protein (input ligand: none)	other results
GAUCAGCUUGUGAGGAUAUCCGGGCAUAAAGGCUAGGAGAAGGUACAUGAGGAUCACCCAUGUAGAGUCCUGGG [Bisoraxe] (puzzle: Brourd's mod of Exclusion 4)	41.2 nM	–	–	–
CCCUCAAGCGAGGAUAUAAAUGCGCAUUCGCGGUUAGAAGGCGCUACAUGAGGAUCACCCAUGUAAUUAAAUGG [jl-ex6-4.51 ViennaUCT mod] (Eterna round: R97, puzzle: Exclusion 6)	–	128 nM	52.6 nM	–
UCAAGCUUUAAGCGUGUGAACAUGAGGAUCACCCAUGUAUUUUAGGUAAUAAGUUCUUUUAUGUAUUCUCGUCUUAU [JR_SWV3TOV1_Sub094] (puzzle: Sensor v3, turn-off variant 1)	39.1 nM	–	–	apparent KD of MS2 coat protein [2]: 114 nM; apparent KD of MS2 coat protein [3]: 136 nM
ACCUCACAUGAGGAUCACCCAUGUCAGGAUAUUCAAACAGGCGAAACUCCGCCUUCUCGAAGAAGGGACAUUAA [Israon] (puzzle: Exclusion 1)	16.2 nM	–	–	–
CCGAUAAUGUAGGAUAUCGUAUCGGAGACGAUACGAGAAGGACAAACAUGAGGAUCACCCAUGUUCCUUAACGG [Mat - Exclusion 6 - Eli Mod - D74] (puzzle: Exclusion 6)	13.5 nM	–	–	–
UUUUAUUGCAAGGAUAUGCAAAUUAUUAUUAAUGCAGAAGGUGCUACAUGAGGAUCACCCAUGUUUCUGGGUUU [JR_E6_Sub043] (puzzle: Exclusion 6)	110 nM	–	–	–
CUAGCGAUUGUAGGAUAUCGAUGUGUUUCACAUCGAGAAGGACAUGAGGAUCACCCAUGUGAAGGAUCGUGAGAUCCACGCUAG [JL ENG1 3.78] (Eterna round: R96, puzzle: Exclusion NG 1)	–	76.6 nM	19.7 nM	apparent KD of MS2 coat protein [4]: 17.5 nM
GGAUCGAAAGUGAGGAUAUACCUAUGGAUACAUAGGUAGAAGGCACAUGAGGAUCACCCAUGUUCCUACGGUCC [Eli bmx4 4.10] (Eterna round: R97, puzzle: Brourd's mod of Exclusion 4)	–	114 nM	18.4 nM	–
ACUUAUUGAGGAUAUACAGAAAAUUACAUGAGGAUCACCCAUGUUCUUCAAUGUAUAUAUGUAGAAGGCAGAAUAU [Mat - Exclusion 5 - JL Mod - D19] (Eterna round: R97, puzzle: Exclusion 5)	–	31.1 nM	16.5 nM	–
UACAUGAGGAUCACCCAUGUUUUGUCGUGUAUGGUAUUUAUCUAGGAUAUCAAGUUAUGUAUUUAUGAGAAGGAGAAUAUUAAU [JMF's solution 31] (Eterna round: R96, puzzle: Exclusion NG 3)	–	40.4 nM	43.2 nM	apparent KD of MS2 coat protein [4]: 35.3 nM
GCUGGUCGAGGAUAUGCAUACACUGGAUACAGUGGAAGGUCACAUGAGGAUCACCCAUGUAGAAGGCGACCAGC [EX2 #35] (Eterna round: R97, puzzle: Exclusion 2)	–	122 nM	35.1 nM	–
AAAAGGUCAGGAUAUGCGAGCGGCAGGGAGGCAGGUCGGUGGCAGAAGGGACAUGAGGAUCACCCAUGUUAAAA [Excls4-II] (puzzle: Exclusion 4)	29.2 nM	–	–	–
CAACAUGGACCUCGCUCCGACAUGAGGAUCACCCAUGUUGGAACCUUACUGGCGUCGAGUGUUGCUCGUCUUACCGU [Eternabot (Original) Solution 10] (Eterna round: R97, puzzle: Sensor, turn-off variant 1)	–	189 nM	268 nM	–
GGGUAGUGAGGAUAUCGUUGUUAGGAGGAGUAGGUAGGAGGCGAGAAGGCACAUGAGGAUCACCCAUGUAUGAG [JR_Exclu4_Sub065] (puzzle: Exclusion 4)	25.5 nM	–	–	–
UUAUCAUGCUUUAGAUCCUACAUGAGGAUCACCCAUGUGCUCGUCUUGUAUCGUUCUGUGUCGUAAGUCUCUGUUCG [mod Jandersonlee designer] (Eterna round: R97, puzzle: Sensor, turn-off variant 1)	–	924 nM	1390 nM	–
UUUGCAAGCUUAUGAUCCCACAUGAGGAUCACCCAUGUUCCUGGCCGUGAGGCUAGGAUAACAUAUGCUCGUCUUAU [JL TOV1 3.64] (Eterna round: R97, puzzle: Sensor, turn-off variant 1)	–	703 nM	814 nM	–
ACAUGAGGAUCACCCAUGUAAUCAUAAUGGCUGAUGUAGAGUCAGGAUAUGUGUGGCUUUCUAUCGCAGAAGGGACAAGACUGG [Deportation 34 - Jieux - Exclusion NG 3] (Eterna round: R96, puzzle: Exclusion NG 3)	–	26.3 nM	30.7 nM	apparent KD of MS2 coat protein [4]: 26.4 nM
AAGAAACAUGAGGAUCACCCAUGUGAGGAUAUGAUAAAGAAAAGAAAAGAAAGAAGAUUCAGAAGGCACAAAGG [salish99-ex1_r3_034] (puzzle: Exclusion 1)	39.4 nM	–	–	apparent KD of MS2 coat protein [2]: 62.3 nM; apparent KD of MS2 coat protein [3]: 48.7 nM

Sequence	apparent KD of MS2 coat protein [1]	apparent KD of MS2 coat protein (input ligand: FMN 200 uM)	apparent KD of MS2 coat protein (input ligand: none)	other results
AGAGAGUCAGGAUAUCGAAGGUAGAGAAGAGGAGAGUGGUACGAGAAGGGACAUGAGGAUCACCCAUGUAGGUG [JR_Exclusion4)Sub012] (puzzle: Exclusion 4)	245 nM	–	–	apparent KD of MS2 coat protein [2]: 193 nM; apparent KD of MS2 coat protein [3]: 462 nM
CUGGUCCGAGGAUAUAUUAAGUGAAACAUGAGGAUCACCCAUGUAAUUUGAUGGAUGUAAAUAGAAGGCGGACUAG [JL-ex5-3.09] (puzzle: Exclusion 5)	37.1 nM	–	–	apparent KD of MS2 coat protein [2]: 29.4 nM; apparent KD of MS2 coat protein [3]: 43.8 nM
GGUUGGCGAGGAUAUACAUGAGGAUCACCCAUGUGAGAGAAGAAAGUGAGGAAGAAAAGUAGAAGGCGCUGACG [salish99_ex3_r3_004] (puzzle: Exclusion 3)	59 nM	–	–	apparent KD of MS2 coat protein [2]: 133 nM; apparent KD of MS2 coat protein [3]: 62.4 nM
CAUACUCAAGUGAGGAUAUAGUCUCGGAUACGGAACUAGAAGGCACAUGAGGAUCACCCAUGUAGAGAGUAAAG [EX-4 Malc #28] (puzzle: Brourd's mod of Exclusion 4)	22.8 nM	–	–	apparent KD of MS2 coat protein [2]: 56.6 nM; apparent KD of MS2 coat protein [3]: 15.9 nM
GAUCAACAUGAGGAUCACCCAUGUGAGGAUAUGAUACUAUGUACUUCGGUACAUAGUAUCAGAAGGCAUAUUGA [Ex1-3: 41] (puzzle: Exclusion 1)	50.7 nM	–	–	–
CCUCACCGAGGAUAUACAUGAGGAUCACCCAUGUGAUCCUAAGGCUGAUCAAGCCUAUGUAGAAGGCGCAAAUC [salish99_ex3_r4_005] (Eterna round: R97, puzzle: Exclusion 3)	–	1010 nM	765 nM	–
UAUAUAUAGUAAGGAUAUGUAUAUAUUUCAUAAACAGAAGGUACUGACAUGAGGAUCACCCAUGUUUUAGUGUGGGCAUGUAGA [JMF's solution 65] (Eterna round: R96, puzzle: Exclusion NG 1)	–	–	–	apparent KD of MS2 coat protein [4]: 48 nM
UUGGAGAUAGGAUAUACGAGGAGAGUUGAGGGAAGGUGAUGACAUGAGGAUCACCCAUGUAGAAGGAUCAGGAG [JR_Exclu2_Sub069] (puzzle: Exclusion 2)	118 nM	–	–	–
UUUAUGCUAGGAUAUGCACCCUCGAACAUGAGGAUCACCCAUGUACAAUAAAAGCAUGGAGCAGAAGGAGCUCCCA [EX5 A.24] (Eterna round: R97, puzzle: Exclusion 5)	–	378 nM	80.1 nM	–
CCGCGACAUGAGGAUCACCCAUGUUAGGAUAUGUGCGCCAACCAAGGAAUUGGUAGGUACAGAAGGAGCUGGGU [Eternabot (L2) Solution 97] (Eterna round: R97, puzzle: Exclusion 1)	–	149 nM	56.3 nM	–
GGUACUAACACGAGAGUGUUAGUACAAUAAGCUUGUGUUACAUGAGGAUCACCCAUGUCCUCAUAAGCUCGUCUUAU [Mat - Sensor v3 - Turn-off var 2 - D57] (puzzle: Sensor v3, turn-off variant 2)	30.8 nM	–	–	apparent KD of MS2 coat protein [2]: 107 nM; apparent KD of MS2 coat protein [3]: 124 nM
CGGAUGUAAGGAUAUUAGUAGUAGUCAGAAAAGACUAUUACUGAGAAGGUACAUGAGGAUCACCCAUGUUUCCG [Mat - Exclusion 4 - Eli Mod - D43] (Eterna round: R97, puzzle: Exclusion 4)	–	20.5 nM	15.8 nM	–
GGUUGACAUGAGGAUCACCCAUGUGAGGAUAUGCGAGAGAAAAAAGUGAGGAAGUAAUGCAGAAGGCGCUGUCG [salish99-ex1_r3_017] (puzzle: Exclusion 1)	86.4 nM	–	–	apparent KD of MS2 coat protein [2]: 132 nM; apparent KD of MS2 coat protein [3]: 210 nM
UUUAAACAUGAGGAUCACCCAUGUUAGGAUAUACGCAUGCAGACACGCACGGAUGCAAGUAGAAGGAACCAUGC [Design #6] (Eterna round: R97, puzzle: Exclusion 1)	–	27.9 nM	31.3 nM	–
UUUGCAAGCUUAAGAUCCCACAUGAGGAUCACCCAUGUUGCUGCCGUGAGGUAGCUUUUAACUUAUGCUCGUCUUAU [JL TOV1 3.46] (Eterna round: R97, puzzle: Sensor, turn-off variant 1)	–	95.7 nM	115 nM	–
GGUCCACAUGAGGAUCACCCAUGUUAGGAUAUCUCGCCCGAGUCGUUAUGGGCCGGGCAGAGAAGGAAUGUGAA [Redion] (puzzle: Exclusion 1)	17.9 nM	–	–	–
ACAUUUGUAGAGGAUAUCAAGCCCAGGCUCCGUUGAGAAGGUUACACAUGAGGAUCACCCAUGUCCUCCUUACC [Eternabot (L1) Solution 4] (Eterna round: R97, puzzle: Exclusion 6)	–	168 nM	162 nM	–
CGUGCGUAUGUGAGGAUAUGCUGGUCCUUGGAUCGGCAGAAGGCACAUGAGGAUCACCCAUGUGGUGUCGUGCA [salish99_Bmod_ex4_090] (puzzle: Brourd's mod of Exclusion 4)	190 nM	–	–	–
